Results reported in US20190041402A1 (GOVERNING COUNCIL OF THE UNIVERSITY OF TORONTO, published 2019).

Assays:
[1] = target: T1, full-length murine βKlotho expressed in HEK293 cells (mouse, UniProt Q99N32 1-1043); test: immunocytochemistry of transfected HEK293 cells
T1 construct: whole, on cells
T1 sequence (looked up): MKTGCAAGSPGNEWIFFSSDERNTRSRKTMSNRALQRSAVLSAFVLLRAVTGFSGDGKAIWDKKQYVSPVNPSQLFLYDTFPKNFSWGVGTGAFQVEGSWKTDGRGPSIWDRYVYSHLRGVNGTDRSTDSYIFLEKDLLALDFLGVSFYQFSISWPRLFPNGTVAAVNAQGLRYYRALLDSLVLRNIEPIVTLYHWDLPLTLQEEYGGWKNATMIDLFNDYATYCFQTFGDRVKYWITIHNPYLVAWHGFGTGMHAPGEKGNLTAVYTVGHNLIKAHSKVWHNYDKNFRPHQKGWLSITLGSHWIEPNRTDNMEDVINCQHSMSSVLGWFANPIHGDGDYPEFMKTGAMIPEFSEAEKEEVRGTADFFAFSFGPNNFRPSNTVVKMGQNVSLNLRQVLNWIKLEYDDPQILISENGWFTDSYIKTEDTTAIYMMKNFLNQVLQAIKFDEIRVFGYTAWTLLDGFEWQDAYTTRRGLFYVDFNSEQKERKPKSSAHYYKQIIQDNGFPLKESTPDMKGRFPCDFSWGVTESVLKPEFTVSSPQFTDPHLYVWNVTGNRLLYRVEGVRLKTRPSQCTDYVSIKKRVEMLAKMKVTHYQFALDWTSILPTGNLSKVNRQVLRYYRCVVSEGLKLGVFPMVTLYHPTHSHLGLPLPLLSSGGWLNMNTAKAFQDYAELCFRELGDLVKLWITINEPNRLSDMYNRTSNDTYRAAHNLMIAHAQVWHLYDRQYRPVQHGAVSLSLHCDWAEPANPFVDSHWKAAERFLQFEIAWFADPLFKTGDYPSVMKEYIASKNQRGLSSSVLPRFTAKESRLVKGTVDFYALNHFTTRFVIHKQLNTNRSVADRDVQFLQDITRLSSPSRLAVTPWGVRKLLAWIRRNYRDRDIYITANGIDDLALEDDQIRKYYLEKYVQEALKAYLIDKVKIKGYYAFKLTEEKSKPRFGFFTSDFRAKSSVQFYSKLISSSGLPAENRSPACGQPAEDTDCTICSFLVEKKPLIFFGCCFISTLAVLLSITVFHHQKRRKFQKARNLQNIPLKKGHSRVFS

neutravidin = target: T2, neutravidin (UniProt P02701 25-152); test: Fab ELISA, Fab 5 ug/ml on immobilised antigen, anti-Flag-HRP, A450
T2 construct: also called NA; NAV
T2 sequence (P02701 25-152): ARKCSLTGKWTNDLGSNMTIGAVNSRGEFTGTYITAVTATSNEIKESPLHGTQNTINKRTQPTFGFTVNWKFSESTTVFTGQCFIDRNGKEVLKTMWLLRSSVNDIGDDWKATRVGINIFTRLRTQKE
Method: Fab ELISA using both human and mouse αKlotho was carried out for assessing cross-reactivity to human and mouse αKlotho (FIG. 16). Fabs (5 ug/ml) were incubated with immobilized αKlotho human, mouse, or neutravidin (NA) and SBA as negative controls. After washing off unbound Fab, bound Fab were detected using an HRP-conjugated anti-Flag antibody (Fabs have Falg tag on the end of their light chains). Colorimetric HRP reagents allow for absorbance readings at 450 nm.

[2] = target: T3, soluble human αKlotho (recombinant) (human, UniProt Q9UEF7 34-981); test: SPR (ProteOn XPR36), Fab captured by anti-IgG(H+L), human αKlotho injected in serial dilutions, Langmuir fit [continued) B.]
T3 construct: also called Hu aKL; recombinant human αKlotho
T3 sequence (looked up): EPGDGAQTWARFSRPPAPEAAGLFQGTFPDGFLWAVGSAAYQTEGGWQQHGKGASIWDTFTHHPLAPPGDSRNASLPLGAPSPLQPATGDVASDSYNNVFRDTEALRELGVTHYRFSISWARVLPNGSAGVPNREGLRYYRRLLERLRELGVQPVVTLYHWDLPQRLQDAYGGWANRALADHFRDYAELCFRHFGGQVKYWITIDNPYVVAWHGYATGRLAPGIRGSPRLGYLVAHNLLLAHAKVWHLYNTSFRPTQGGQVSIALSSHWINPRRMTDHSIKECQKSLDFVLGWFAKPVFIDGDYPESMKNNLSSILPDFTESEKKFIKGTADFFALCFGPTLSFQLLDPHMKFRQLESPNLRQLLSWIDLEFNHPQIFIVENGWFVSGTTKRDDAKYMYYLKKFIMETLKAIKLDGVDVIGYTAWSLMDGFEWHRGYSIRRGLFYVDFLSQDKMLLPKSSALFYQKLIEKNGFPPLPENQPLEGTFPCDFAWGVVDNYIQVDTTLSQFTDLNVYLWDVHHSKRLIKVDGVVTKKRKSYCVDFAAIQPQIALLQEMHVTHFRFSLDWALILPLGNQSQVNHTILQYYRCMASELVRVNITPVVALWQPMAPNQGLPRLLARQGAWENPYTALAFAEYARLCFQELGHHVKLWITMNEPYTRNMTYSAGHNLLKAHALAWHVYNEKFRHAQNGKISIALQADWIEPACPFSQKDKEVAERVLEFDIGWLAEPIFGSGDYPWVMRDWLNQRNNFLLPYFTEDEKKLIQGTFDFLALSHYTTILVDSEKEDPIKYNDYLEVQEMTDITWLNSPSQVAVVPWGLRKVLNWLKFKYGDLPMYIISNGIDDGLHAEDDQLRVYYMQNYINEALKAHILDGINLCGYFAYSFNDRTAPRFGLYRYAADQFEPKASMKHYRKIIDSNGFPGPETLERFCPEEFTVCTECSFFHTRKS
Method: Estimated affinities against human and mouse antigen for select αKlotho Fabs were obtained by surface plasmon resonance on a ProteOn XPR36 (FIG. 17). Fabs were captured using an anti-IgG(H+L) antibody and serial dilutions of αKlotho were injected. Binding curves were fitted to the Langmuir model. (A) Determined Kon, Koff and KD values. (B) and (C) Binding curves for human and mouse antigen respectively.

binding result [1]: no binding (tested: 5 µg/ml)
binding result (neutravidin): no binding (tested: 5 ug/ml)
Kd [2]: 1.02 nM
koff [2]: 0.000315 s⁻¹
kon [2]: 308000 M⁻¹ s⁻¹
B1: sb106 Fab (Fab, V domains shown)
VH: EVQLVESGGGLVQPGGSLRLSCAASGFNISYYSIHWVRQAPGKGLEWVAYISPSYGYTSYADSVKGRFTISADTSKNTAYLQMNSLRAEDTAVYYCARYYVYASHGWAGYGMDYWGQGTLVTVSS
VL: DIQMTQSPSSLSASVGDRVTITCRASQSVSSAVAWYQQKPGKAPKLLIYSASSLYSGVPSRFSGSRSGTDFTLTISSLQPEDFATYYCQQAGYSPITFGQGTKVEIKR
notes: also called Fsb106; clone 48
